Assay [1] concerns the target human Kv1.3 protein with C-terminal FLAG and 10xHis tags (human) (UniProt P22001). In words: ELISA, supernatant, dilution 50. On the technique in general: ELISA stands for enzyme-linked immunosorbent assay.
Assay [2] shares this target. The assay is described as follows: ELISA, supernatant, dilution 6250.
For assay [3], the target named is human Kv1.3 protein on cells (human, UniProt P22001 1-575). The assay is described as follows: cell-based or functional assay.
The target in assay [4] is human Kv1.3 protein with C-terminal FLAG and 10xHis tags (human) (UniProt P22001). In words: ELISA, supernatant, dilution 250.
human Kv1.3 protein with C-terminal FLAG and 10xHis tags (human), sequence (P22001 other isoform, or with tags, fused parts or gaps): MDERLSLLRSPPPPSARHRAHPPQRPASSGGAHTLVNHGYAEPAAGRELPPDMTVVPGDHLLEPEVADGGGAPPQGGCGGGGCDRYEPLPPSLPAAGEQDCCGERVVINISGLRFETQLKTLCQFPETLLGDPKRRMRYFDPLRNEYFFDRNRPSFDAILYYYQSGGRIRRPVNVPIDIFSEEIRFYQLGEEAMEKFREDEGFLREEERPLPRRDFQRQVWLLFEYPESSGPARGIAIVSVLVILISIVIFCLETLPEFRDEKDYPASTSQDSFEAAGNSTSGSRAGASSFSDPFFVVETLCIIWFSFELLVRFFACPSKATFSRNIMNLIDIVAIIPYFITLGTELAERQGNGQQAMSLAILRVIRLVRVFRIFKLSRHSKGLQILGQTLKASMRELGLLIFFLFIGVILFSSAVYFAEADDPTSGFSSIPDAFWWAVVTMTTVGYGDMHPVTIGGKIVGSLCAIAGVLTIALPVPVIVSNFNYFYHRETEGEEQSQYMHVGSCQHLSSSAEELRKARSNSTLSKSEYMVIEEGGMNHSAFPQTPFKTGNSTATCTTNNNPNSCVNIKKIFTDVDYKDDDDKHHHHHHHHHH
Assay [5] has the same target. The assay is described as follows: ELISA, supernatant, dilution 1250.

human Kv1.3 protein on cells, sequence (P22001 whole entry): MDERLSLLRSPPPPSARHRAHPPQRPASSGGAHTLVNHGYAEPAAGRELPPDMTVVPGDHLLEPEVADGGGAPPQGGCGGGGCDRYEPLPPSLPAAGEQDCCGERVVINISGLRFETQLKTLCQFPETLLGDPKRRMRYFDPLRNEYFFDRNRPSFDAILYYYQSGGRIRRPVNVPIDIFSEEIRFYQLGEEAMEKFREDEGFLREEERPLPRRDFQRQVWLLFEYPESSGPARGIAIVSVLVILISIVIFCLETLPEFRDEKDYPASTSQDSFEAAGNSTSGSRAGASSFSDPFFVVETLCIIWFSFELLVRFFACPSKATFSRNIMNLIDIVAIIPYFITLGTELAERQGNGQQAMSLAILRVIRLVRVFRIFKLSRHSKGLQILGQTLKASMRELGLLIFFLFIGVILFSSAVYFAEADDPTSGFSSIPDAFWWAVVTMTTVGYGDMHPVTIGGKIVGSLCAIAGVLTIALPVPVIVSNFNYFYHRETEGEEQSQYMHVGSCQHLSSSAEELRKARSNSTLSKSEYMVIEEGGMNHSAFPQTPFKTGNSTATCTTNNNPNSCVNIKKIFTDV

B1: 19724p1.E6 (Fc fusion, not shown: small tags and cut ends; a dimerising Fc or GST)
scFv (part 1 of 2): ALTQPASVSANLGETVEITCSGGYSDDGSYYYGWYQQKSPGSAPVTVIYENNKRPSDIPSRFSGSLSGSTNTLTITGVRAEDEAVYYCGSWDSSAGIFGAGTTLTVL
scFv (part 2 of 2): MAAVTLDESGGGLQTPGGTLSLVCKASGFTFSSHGMQWVRQAPGKGLEWVAGISRDGSRTRYGAAVKGRATISRDNGQSTVRLQLNNLRAEDTAIYFCAKSAYECDGYSCWTFIAGSIDAWGHGTEVIVS
For B1, the ELISA signal in assay [1] stood at 0.077; in assay [2], 0.084; in assay [4], 0.074; in assay [5], 0.077. In assay [3], the “IC50, dose-response of Kv1.3 current block (whole-cell patch clamp)” value turned out to be 6 nM.

B2: 1A3 (Fc fusion, not shown: small tags and cut ends; a dimerising Fc or GST)
scFv (part 1 of 2): LDIQMTQSPSSVTASVGEKVTINCKSSQSVVSASNQKSYLNWYQQRPGQSPRLLIYYASTQELGIPDRFSGSGSTTDFTLTISSVQPEDAAVYYCQQAYSAPYNFGSGTRLEIK
scFv (part 2 of 2): QVQLQESGGGLVQPGGSLRLSCAASGFTFSINGMSWVRQAPGKEVEWVSSINSGGEITNYRDSVKGRFTISRDNVKNTLYLQMNSLKPEDTAFYHCVTGIVAYDYWGQGTQVTVSS
Turning to B2, the “IC50, dose-response of Kv1.3 current block (whole-cell patch clamp)” value in assay [3] amounted to 109 nM.

The values are drawn from patent publication US20190144538A1 (TETRAGENETICS, published 2019).
